Source: article PMC12236821

Molecular target: AtBAM1 ectodomain (residues 20-629) (Arabidopsis thaliana) (UniProt O49545)
Experiment: ITC

Chain of UniProt O49545 (O49545 20-629): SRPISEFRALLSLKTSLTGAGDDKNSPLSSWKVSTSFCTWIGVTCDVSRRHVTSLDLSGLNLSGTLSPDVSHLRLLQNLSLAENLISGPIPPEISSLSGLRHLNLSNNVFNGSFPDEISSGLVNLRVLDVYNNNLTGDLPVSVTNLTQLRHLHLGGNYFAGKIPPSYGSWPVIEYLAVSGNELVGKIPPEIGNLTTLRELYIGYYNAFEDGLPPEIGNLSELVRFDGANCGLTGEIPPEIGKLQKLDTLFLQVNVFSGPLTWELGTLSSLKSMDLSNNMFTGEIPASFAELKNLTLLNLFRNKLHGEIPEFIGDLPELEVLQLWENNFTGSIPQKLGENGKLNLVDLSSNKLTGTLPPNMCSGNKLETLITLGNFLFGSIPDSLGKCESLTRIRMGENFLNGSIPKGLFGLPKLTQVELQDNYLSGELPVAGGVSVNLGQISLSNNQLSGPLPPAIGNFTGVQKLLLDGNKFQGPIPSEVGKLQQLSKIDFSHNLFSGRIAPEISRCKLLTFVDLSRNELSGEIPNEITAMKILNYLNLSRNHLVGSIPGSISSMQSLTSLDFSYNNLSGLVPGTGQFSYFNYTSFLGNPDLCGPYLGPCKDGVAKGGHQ

fold lower affinity than AtCLE13p: 1000 fold
Substance: AtCLV3p (Arabidopsis CLAVATA3 peptide)
